Source: the supplement of paper PMC12042874
± gives the uncertainty stated by the source.

Assay: amyloid nucleation score (Sup35N fusion, yeast selection) (log enrichment); library NNK1; higher = more nucleation; inactive = no reads after selection
Method in brief: (§1)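 Peptides of 20 random codons fused to Sup35N were expressed in psi-negative yeast, induced 24 hours with 100 μM copper sulfate, then grown 7 days at 30°C on medium lacking adenine and uracil. Input and output plasmid inserts were Illumina-sequenced. Nucleation score is the DiMSum log enrichment of output over input reads, centred on the mode score of non-aggregating sequences, excluding sequences with under 100 input reads. Random libraries had three technical output replicates.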
With ARWWVRLEYC the amyloid nucleation score was 0.523 ± 0.29. For ASCVKYVW, the amyloid nucleation score was 1.31 ± 0.66. ASDLGATKHNLHFIACIFSL showed an amyloid nucleation score of 4.77 ± 0.074. Substance ASFASKARHKR has an amyloid nucleation score of 0.728 ± 0.87. Work on ASFGGINLPL yielded an amyloid nucleation score of -0.236 ± 0.41. For ASFITGWMANTYN, the amyloid nucleation score was 0.385 ± 0.42. ASGKYNRLCIGFVWGCEQGM gave an amyloid nucleation score of 2.12 ± 0.26. For ASGSI, the amyloid nucleation score was -1.32 ± 2.4. Substance ASIYCWLLNRHLDDDFLWLS has an amyloid nucleation score of -0.702 ± 1.9. For ASLHHKSWTDHADTMTPPRT, the amyloid nucleation score was “inactive”. With ASMLFRSHQCCLIHSGADIN the amyloid nucleation score was 0.979 ± 0.29. Work on ASNGVN yielded an amyloid nucleation score of -0.099 ± 0.5. For ASPHWGSCNKTLRDGPRQVL, the amyloid nucleation score was -0.677 ± 0.65. With ASRAFSVVDYSGLLRGS the amyloid nucleation score was 0.498 ± 0.61. ASRFDCEDIFGRTCGYVHYF gave an amyloid nucleation score of -0.113 ± 0.79. In the case of ASRVQGMYYHVHQPLKQLWV, the amyloid nucleation score is reported as “inactive”. ASSSGFSMGLCQMYNGTFMG showed an amyloid nucleation score of -1.21 ± 0.94. With ASTYMYGFSYIYMLVNRCEC the amyloid nucleation score was 1.59 ± 0.14. With ATGSMGQSSSTGDASKLASF the amyloid nucleation score was 1.3 ± 0.32. Work on ATMVMELMVSELGLEEVFDV yielded an amyloid nucleation score of -0.216 ± 0.49. Substance ATPMFNVPVHRCVKKV has an amyloid nucleation score of -0.206 ± 0.46. ATRDYVSGANDGIGPQMMWV gave an amyloid nucleation score of 0.324 ± 0.49. With ATRFIEESTL the amyloid nucleation score was -0.942 ± 0.68. In the case of ATRSSSFRMHDKNLCLTVDM, the amyloid nucleation score is reported as 0.855 ± 0.48. In the case of ATSDI, the amyloid nucleation score is reported as -0.076 ± 0.27. For ATSGGYGRFLVIISFDWVGA, the amyloid nucleation score was -0.34 ± 0.37. For ATYSLIFEPWPGPRLVPMQG, the amyloid nucleation score was -0.12 ± 0.62. AVFWSNYCSMSCMSKTKKKS showed an amyloid nucleation score of 0.159 ± 0.51. AVGYYCKSINRKHFIVEKLQ showed an amyloid nucleation score of -0.298 ± 0.4. For AVIAMYRVNAPSC, the amyloid nucleation score was 1.15 ± 0.41. Work on AVIVVV yielded an amyloid nucleation score of 0.175 ± 0.39. With AVMFVTCLIVSASGHLLYTL the amyloid nucleation score was 1.39 ± 0.88. AVQYNKVKERTLSQPWTHHV showed an amyloid nucleation score of -1.86 ± 1.7. Substance AVRHLPAPRHSMCLIWYCNC has an amyloid nucleation score of 0.156 ± 0.37. For AVSDVTVIRRCMFIG, the amyloid nucleation score was 0.448 ± 0.47. Work on AVSNLATEGRVYLKVRLESW yielded an amyloid nucleation score of -0.991 ± 2.4. Substance AVVAIYSQILRNGSVLSWFP has an amyloid nucleation score of 0.242 ± 0.51. Work on AVYFSSFR yielded an amyloid nucleation score of 0.522 ± 0.33. Substance AWFGYISYWNEFFLWDCFWS has an amyloid nucleation score of -0.366 ± 0.4. With AWKKFSWDRLSKP the amyloid nucleation score was 5.16 ± 0.072. Work on AWMSRIVNNPGSNTFSRQWL yielded an amyloid nucleation score of -0.284 ± 0.71. AWVYSYSRSILMWGVTGLWV gave an amyloid nucleation score of 0.77 ± 0.61. In the case of AYFRGRVNFSLTFLAYT, the amyloid nucleation score is reported as -0.098 ± 0.56. For AYNLNLYNRCQVLMLISSTR, the amyloid nucleation score was 4.91 ± 0.048. AYNVVHSSLGTKGVRGSCAT gave an amyloid nucleation score of -0.74 ± 1.7. For CAGWFRTFGAYKDAMARLAR, the amyloid nucleation score was “inactive”. CARNNHELVNYFKAFIPVVA showed an amyloid nucleation score of 0.751 ± 0.43. For CASRNCGNYVK, the amyloid nucleation score was “inactive”. CAVHYKLCDLYHT showed an amyloid nucleation score of 0.381 ± 0.5. For CAVVVGVSGGAHEGVGKTKY, the amyloid nucleation score was -0.35 ± 0.45. In the case of CCFNYKSPWSMWFNLRLSNP, the amyloid nucleation score is reported as 5.06 ± 0.071. CCIMSRIGTCLWVEWRWCRG gave an amyloid nucleation score of 0.243 ± 0.39. With CCQSFLLKSPSYRAMAFIWW the amyloid nucleation score was -0.929 ± 0.33. With CCWNNSLS the amyloid nucleation score was “inactive”. CCYWMASALENRSRRIRLHV gave an amyloid nucleation score of -0.612 ± 0.84. In the case of CDCTNT, the amyloid nucleation score is reported as -0.78 ± 1.4. CDSYSKMPPGRNILVCQFCW gave an amyloid nucleation score of 2.15 ± 0.11. CEWFPRHKMYLESVFVYKRL gave an amyloid nucleation score of -0.116 ± 0.56. Work on CFCKGGPVVTRMWEGIYPC yielded an amyloid nucleation score of -0.014 ± 0.27. Work on CFGFFVWANHAYHAQRCVAS yielded an amyloid nucleation score of 1.29 ± 0.33. With CFGRRRVRIELGTAWPFSVL the amyloid nucleation score was -0.754 ± 1.1. With CFGSSRVSCEYTDDRDDCGM the amyloid nucleation score was “inactive”. Substance CFKGF has an amyloid nucleation score of 0.946 ± 0.49. For CFNLALLRVLAGTKLYSFMG, the amyloid nucleation score was 0.64 ± 0.35.

Assay: amyloid nucleation score (Sup35N fusion, yeast selection) (log enrichment); library NNK2; higher = more nucleation; inactive = no reads after selection
Method in brief: as §1
In the case of YWANGSDEDSVGGNIDAVGD, the amyloid nucleation score is reported as -1.07 ± 0.55. Work on YWKGNTRIGQVLFYTLSCKT yielded an amyloid nucleation score of 0.389 ± 0.8. Work on YWKPCLVAVGWSTQLRCCPV yielded an amyloid nucleation score of -0.324 ± 0.3. Substance YWLSRSWHWKKLFGGWFALL has an amyloid nucleation score of 0.016 ± 0.54. For YWVFI, the amyloid nucleation score was -0.115 ± 0.56. In the case of YWVYAGIGVRMCNRVYNNLR, the amyloid nucleation score is reported as 0.336 ± 0.3. In the case of YWWCRPILILCSNLDDVWSL, the amyloid nucleation score is reported as 7.6 ± 0.079. Work on YYDSYPVT yielded an amyloid nucleation score of 0.013 ± 0.28. In the case of YYFNEREK, the amyloid nucleation score is reported as “inactive”. With YYHCPTSFFYIV the amyloid nucleation score was “inactive”. For YYIMCFSSGCDPLPQHCGWE, the amyloid nucleation score was -0.821 ± 1.1. For YYIQHHSF, the amyloid nucleation score was 3.37 ± 0.082. In the case of YYKQWG, the amyloid nucleation score is reported as “inactive”. With YYLNSTSGKDR the amyloid nucleation score was “inactive”. For YYLPLGYDWPWSYSKCSNTR, the amyloid nucleation score was 4.04 ± 0.072. In the case of YYMKVVMVDTQTQV, the amyloid nucleation score is reported as “inactive”. Substance YYQRLRVHLYADIELYATLC has an amyloid nucleation score of 0.266 ± 0.6. With YYSDVGVYSVRGYLLWS the amyloid nucleation score was -0.447 ± 0.61. Work on YYSKNAVVWVNGCVRRVMII yielded an amyloid nucleation score of 0.127 ± 0.63. With YYVAIVSLWSGVKYVMVKFA the amyloid nucleation score was -1.07 ± 0.78. YYWTPCGVCITFVGCNVILY showed an amyloid nucleation score of 8.499 ± 0.022.
